# Data from publication doi:10.1101/2025.10.30.685691v1 (biorxiv, 2025).
# Tests used:
# [1] = tested on: O=C(O)C(=O)CC1(C(=O)O)C=CC(O)C=C1; test: purified protein; settings: pH 7.5
# [2] = target: BaPDH (WT-BaPDH, full-length ACT-containing prephenate dehydrogenase) (Bacillus anthracis, UniProt Q81P63); test: biochemical
# Chain of BaPDH (WT-BaPDH, full-length ACT-containing prephenate dehydrogenase) (Q81P63 1-378 limits assumed): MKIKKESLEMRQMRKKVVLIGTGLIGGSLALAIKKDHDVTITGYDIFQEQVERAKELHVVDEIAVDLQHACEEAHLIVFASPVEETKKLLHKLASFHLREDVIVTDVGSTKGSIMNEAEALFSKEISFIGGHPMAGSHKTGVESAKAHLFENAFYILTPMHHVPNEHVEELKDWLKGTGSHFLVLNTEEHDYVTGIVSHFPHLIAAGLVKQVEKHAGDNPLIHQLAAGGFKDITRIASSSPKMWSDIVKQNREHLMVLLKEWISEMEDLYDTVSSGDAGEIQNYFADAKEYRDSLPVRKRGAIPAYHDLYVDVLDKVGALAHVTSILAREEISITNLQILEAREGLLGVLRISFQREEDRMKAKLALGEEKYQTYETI
Compound,Km [1] [µM],Ki [2] [nM]
"BaPDH (WT-BaPDH, full-length ACT-containing prephenate dehydrogenase) (Bacillus anthracis)",78 ± 10,–
N[C@@H](Cc1ccc(O)cc1)C(=O)O [tyrosine],–,1500 ± 200
